Test [1] deals with T1, full-length class E TetR (Escherichia coli) (UniProt P21337).
T1 sequence: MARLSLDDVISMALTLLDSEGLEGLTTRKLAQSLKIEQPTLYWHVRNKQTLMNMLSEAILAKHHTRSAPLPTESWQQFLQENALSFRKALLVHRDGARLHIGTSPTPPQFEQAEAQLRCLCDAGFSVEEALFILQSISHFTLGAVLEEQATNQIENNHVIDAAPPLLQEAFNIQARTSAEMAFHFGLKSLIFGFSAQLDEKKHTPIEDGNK

Test [2] deals with full-length class D TetR (Escherichia coli) (UniProt P0ACT4).
For test [3], the target named is full-length class B TetR (wild-type, Tn10-encoded) (Tn10-encoded (organism not stated)).
Test [4] addresses T2, full-length class C TetR (Escherichia coli) (UniProt P03039).
T2 sequence: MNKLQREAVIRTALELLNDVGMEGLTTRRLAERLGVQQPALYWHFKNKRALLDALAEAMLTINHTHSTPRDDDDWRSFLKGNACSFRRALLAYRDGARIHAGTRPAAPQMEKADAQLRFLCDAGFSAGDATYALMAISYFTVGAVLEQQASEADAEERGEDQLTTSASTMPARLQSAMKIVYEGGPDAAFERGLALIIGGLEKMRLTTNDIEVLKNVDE

B1: deletion mutant of the Tn10-encoded class B TetR (Δ26-53) (protein)
chain: MSRLDKSKVINSALELLNEVGIEGLALAIEMLDRHHTHFCPLEGESWQDFLRNKAKSFRCALLSHRDGAKVHLGTRPTEKQYETLENQLAFLCQQGFSLENALYALSAVGHFTLGCVLEDQEHQVAKEERETPTTDSMPPLLRQAIELFDHQGAEPAFLFGLELIICGLEKQLKCESGS
As for B1, the Factor of Transdominance (β-galactosidase activity with against without the deletion mutant) in test [1] turned out to be 1 fold; in test [2], 1.1 fold; in test [3] it was 22 fold; in test [4], 2 fold.

Source of the values: US20030022315A1.
